# Values of other authors in paper PMC3091359.
# pKd: −log10 of the molar value.
# Target: (Pro)renin (Homo sapiens) (UniProt P00797)
# Sequence of UniProt P00797 (P00797 67-406): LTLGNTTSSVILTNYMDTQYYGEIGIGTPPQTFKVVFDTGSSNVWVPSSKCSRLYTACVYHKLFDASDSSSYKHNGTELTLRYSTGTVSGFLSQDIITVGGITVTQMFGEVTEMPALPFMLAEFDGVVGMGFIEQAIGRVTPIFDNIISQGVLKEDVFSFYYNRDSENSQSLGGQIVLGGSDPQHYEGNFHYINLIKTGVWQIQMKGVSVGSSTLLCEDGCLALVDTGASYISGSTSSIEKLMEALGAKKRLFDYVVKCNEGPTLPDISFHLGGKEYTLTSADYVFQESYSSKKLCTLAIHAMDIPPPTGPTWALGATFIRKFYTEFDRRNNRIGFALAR
substance,measurement,value
(Pro)renin receptor (from UniProt Q6AXS4),pKd,8.43
